Data from patent US20210347913A1 (CRISPR THERAPEUTICS, published 2021).

How the values were obtained:
[1] = biological target: T1, recombinant human PTK7.Fc (R and D Systems, catalog #9799-TK) (human, UniProt Q13308 31-704, limits assumed); experiment: flow cytometry, percent of CAR T cells positive for 10 ug/mL PTK7.Fc
T1 construct: Bought reagent; also called soluble recombinant human PTK7.Fc; soluble antigen PTK7; not shown: Fc part of the bought fusion (detected with anti-human Fc)
T1 sequence (looked up): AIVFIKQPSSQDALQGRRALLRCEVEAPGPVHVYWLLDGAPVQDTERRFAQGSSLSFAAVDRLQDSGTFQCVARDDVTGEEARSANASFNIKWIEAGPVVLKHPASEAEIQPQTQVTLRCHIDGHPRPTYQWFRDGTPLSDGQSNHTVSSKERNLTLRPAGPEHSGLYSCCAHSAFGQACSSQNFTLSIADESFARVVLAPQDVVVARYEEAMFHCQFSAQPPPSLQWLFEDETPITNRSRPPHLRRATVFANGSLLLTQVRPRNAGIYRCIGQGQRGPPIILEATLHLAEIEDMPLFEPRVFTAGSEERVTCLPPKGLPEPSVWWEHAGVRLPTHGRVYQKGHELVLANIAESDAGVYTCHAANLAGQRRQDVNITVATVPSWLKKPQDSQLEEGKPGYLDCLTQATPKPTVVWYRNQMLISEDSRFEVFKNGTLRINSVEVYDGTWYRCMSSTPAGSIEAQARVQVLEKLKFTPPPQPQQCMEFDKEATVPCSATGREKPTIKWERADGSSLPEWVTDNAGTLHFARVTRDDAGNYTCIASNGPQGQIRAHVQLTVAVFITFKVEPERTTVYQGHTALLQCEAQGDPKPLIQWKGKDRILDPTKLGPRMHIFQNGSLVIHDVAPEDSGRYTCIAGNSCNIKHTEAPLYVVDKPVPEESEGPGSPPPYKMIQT
Experimental: In addition to detecting surface CAR expression, the ability of the CAR T cells and masked CAR T cells to detect target antigen was also determined. Live CAR T cells were gated by their forward scatter (FSC) and side scatter (SSC) profiles, and with DAPI dye (Invitrogen, catalog #: D3571). The cells were then stained with 10 μg/mL recombinant human PTK7.Fc (R and D Systems, catalog #9799-TK Lot DHMCO219041) as described above in Example 3, and with mouse anti-human.Fc conjugated to APC (Biolegend cat #409305) as secondary antibody for detection (FIG. 3).

[2] = biological target: T2, PTK7 on PTK7 positive cell line SaOS-2 (osteosarcoma) (UniProt Q13308 31-1070, limits assumed); experiment: cell-based or functional assay
T2 sequence (looked up): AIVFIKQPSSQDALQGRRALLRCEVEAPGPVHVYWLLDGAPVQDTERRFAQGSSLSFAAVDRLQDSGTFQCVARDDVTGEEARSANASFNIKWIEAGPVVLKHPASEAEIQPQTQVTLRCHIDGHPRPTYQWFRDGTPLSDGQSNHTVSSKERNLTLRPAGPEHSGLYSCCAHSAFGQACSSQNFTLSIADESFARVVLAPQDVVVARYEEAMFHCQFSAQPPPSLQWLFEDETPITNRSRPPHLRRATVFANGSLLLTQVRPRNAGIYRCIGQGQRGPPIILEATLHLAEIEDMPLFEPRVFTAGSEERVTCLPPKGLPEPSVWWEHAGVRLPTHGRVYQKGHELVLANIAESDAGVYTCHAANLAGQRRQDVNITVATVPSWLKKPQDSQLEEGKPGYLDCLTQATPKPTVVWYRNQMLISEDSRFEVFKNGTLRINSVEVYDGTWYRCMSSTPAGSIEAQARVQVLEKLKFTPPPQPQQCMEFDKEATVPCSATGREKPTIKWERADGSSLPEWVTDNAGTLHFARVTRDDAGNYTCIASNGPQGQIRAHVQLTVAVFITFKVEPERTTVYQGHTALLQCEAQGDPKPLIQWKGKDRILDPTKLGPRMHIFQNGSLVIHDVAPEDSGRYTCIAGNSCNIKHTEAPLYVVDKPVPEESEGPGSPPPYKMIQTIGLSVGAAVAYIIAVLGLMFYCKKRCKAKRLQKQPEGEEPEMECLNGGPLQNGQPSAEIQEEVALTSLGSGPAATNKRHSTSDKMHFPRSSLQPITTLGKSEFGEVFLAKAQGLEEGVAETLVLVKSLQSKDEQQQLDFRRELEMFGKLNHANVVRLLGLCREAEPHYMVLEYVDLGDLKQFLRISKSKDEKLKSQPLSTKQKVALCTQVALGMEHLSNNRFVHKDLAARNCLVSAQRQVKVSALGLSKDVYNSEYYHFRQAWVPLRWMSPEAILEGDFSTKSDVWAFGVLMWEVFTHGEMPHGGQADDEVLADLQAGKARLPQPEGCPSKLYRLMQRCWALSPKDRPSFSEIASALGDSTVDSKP

[3] = biological target: T2, PTK7 on PTK7 positive cell line SaOS-2 …; experiment: cell-based or functional assay; remark: listed apart in the source
[4] = biological target: T3, anti-PTK7 antibody Ab181; experiment: phage display selection of peptide binders of Ab181 (Screen 1, X15/X19 library)
T3 construct: Unmasked parent IgG1kappa; also called Ab181 IgG1kappa

B1: CTX181.M14 (other)
chain: QGCTHVAQWAIKAFCGSSGGSGGSGGSGGGPLGLAGGSSGQVQLVESGGGVVQPGRSLRLSCAASGFTFSSYGMHWVRQAPGKGLEWVAVIWDDGSNKYYVDSVKGRFTISRDNSKNTLYLQMNSLRAEDTAVYYCARDDYYGSGSFNSYYGTDVWGQGTTVTVSSGGGGSGGGGSGGGGSEIVLTQSPATLSLSPGERATLSCRASQSVSIYLAWYQQKPGQAPRLLIYDASNRATGIPARFSGSGSGTDFTLTISSLEPEDFAVYYCQQRSNWPPFTFGPGTKVDIKSAAAFVPVFLPAKPTTTPAPRPPTPAPTIASQPLSLRPEACRPAAGGAVHTRGLDFACDIYIWAPLAGTCGVLLLSLVITLYCNHRNRSKRSRLLHSDYMNMTPRRPGPTRKHYQPYAPPRDFAAYRSRVKFSRSADAPAYQQGQNQLYNELNLGRREEYDVLDKRRGRDPEMGGKPRRKNPQEGLYNELQKDKMAEAYSEIGMKGERRRGKGHDGLYQGLSTATKDTYDALHMQALPPR
notes: Masked chimeric antigen receptor on the surface of TRAC-/B2M- human T cells; entry without signal peptide
[1]
  % Antigen detection: 36.2%
[2]
  IFNγ (pg/mL) at E:T = 1:0.5: 1760 pg/mL
  IFNγ (pg/mL) at E:T = 1:1: 1930 pg/mL
[3]
  % Cell killing at E:T = 1:0.5: 52.8%
  % Cell killing at E:T = 1:1: 29.5%

B2: CTX181.P1 (other)
chain: EVAPGKRWFYNHVKQVPHLVGSSGGSGGSGGSGGGPLGLAGGSSGQVQLVESGGGVVQPGRSLRLSCAASGFTFSSYGMHWVRQAPGKGLEWVAVIWDDGSNKYYVDSVKGRFTISRDNSKNTLYLQMNSLRAEDTAVYYCARDDYYGSGSFNSYYGTDVWGQGTTVTVSSGGGGSGGGGSGGGGSEIVLTQSPATLSLSPGERATLSCRASQSVSIYLAWYQQKPGQAPRLLIYDASNRATGIPARFSGSGSGTDFTLTISSLEPEDFAVYYCQQRSNWPPFTFGPGTKVDIKSAAAFVPVFLPAKPTTTPAPRPPTPAPTIASQPLSLRPEACRPAAGGAVHTRGLDFACDIYIWAPLAGTCGVLLLSLVITLYCNHRNRKRGRKKLLYIFKQPFMRPVQTTQEEDGCSCRFPEEEEGGCELRVKFSRSADAPAYQQGQNQLYNELNLGRREEYDVLDKRRGRDPEMGGKPRRKNPQEGLYNELQKDKMAEAYSEIGMKGERRRGKGHDGLYQGLSTATKDTYDALHMQALPPR
notes: Masked chimeric antigen receptor on the surface of TRAC-/B2M- human T cells; entry without signal peptide; also called masked anti-PTK7 CAR P1
[1]
  % Antigen detection: 42.7%
[2]
  IFNγ (pg/mL) at E:T = 1:0.5: 13600 pg/mL
  IFNγ (pg/mL) at E:T = 1:1: 20500 pg/mL
[3]
  % Cell killing at E:T = 1:0.5: 92.7%
  % Cell killing at E:T = 1:1: 79.1%

B3: mask peptide P1 (peptide)
peptide: EVAPGKRWFYNHVKQVPHLV
notes: Found by phage display (Screen 1)
[4]
  binding result: binds

B4: mask peptide P2 (peptide)
peptide: HEEVHMRPNKLSLTWAYTGPQLR
notes: Found by phage display (Screen 1); fused through a cleavable linker in the masked constructs
[4]
  binding result: binds
